Test results as given in paper PMC6712033, “Proteasome subunit α1 overexpression preferentially drives canonical proteasome biogenesis and enhances stress tolerance in yeast” (Scientific Reports, 2019).

Target: T1, proteasome subunit α2-K160C (S. cerevisiae, UniProt P23639 1-250, K160C)
T1 construct: 20S proteasome core particle subunit α2, S. cerevisiae, with an engineered cysteine at the α2-α3 interface; Detected with an anti-His antibody (TetraHis); also called His (α2); source: S. cerevisiae (WT or pba3Δ), in cell extract
T1 sequence (looked up): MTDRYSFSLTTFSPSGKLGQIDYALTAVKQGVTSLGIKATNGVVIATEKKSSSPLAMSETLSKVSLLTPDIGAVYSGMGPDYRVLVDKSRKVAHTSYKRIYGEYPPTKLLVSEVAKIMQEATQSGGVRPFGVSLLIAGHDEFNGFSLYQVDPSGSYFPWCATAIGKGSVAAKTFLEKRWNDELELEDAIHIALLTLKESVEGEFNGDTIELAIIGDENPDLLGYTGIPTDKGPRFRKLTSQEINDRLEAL
Assay: cross-linking; engineered disulfide crosslinking in yeast extracts (WT or pba3Δ, empty vector or α1 overexpressed); 250 µM CuCl2, 25 °C, 10 minutes; 50 mM HEPES pH 7.5, 150 mM NaCl, 5 mM MgCl2, 2 mM ATP; non-reducing SDS-PAGE, anti-His immunoblot; reversed by DTT
Details: partners not purified

B1: proteasome subunit α3-L56C (natural protein, S. cerevisiae, UniProt P23638 1-258, looked up)
chain: MGSRRYDSRTTIFSPEGRLYQVEYALESISHAGTAIGIMASDGIVLAAERKVTSTCLEQDTSTEKLYKLNDKIAVAVAGLTADAEILINTARIHAQNYLKTYNEDIPVEILVRRLSDIKQGYTQHGGLRPFGVSFIYAGYDDRYGYQLYTSNPSGNYTGWKAISVGANTSAAQTLLQMDYKDDMKVDDAIELALKTLSKTTDSSALTYDRLEFATIRKGANDGEVYQKIFKPQEIKDILVKTGITKKDEDEEADEDMK
notes: 20S proteasome core particle subunit α3, S. cerevisiae, with an engineered cysteine at the α2-α3 interface; source: S. cerevisiae (WT or pba3Δ), in cell extract
  fold increase in crosslinking (α1 overexpressed against empty vector, pba3Δ cells): 1.76 fold
